System: TCR transduced Jurkat cells
Test: Co-culture of TMG-expressing immortalized B cells with TCR transduced Jurkat cells, CD69 by flow cytometry (Example 5)
Type: cell-based, human
Conditions: 1:1 E:T, 20 hours co-culture
Excerpt: B cells from healthy donors are isolated from PBMCs using magnetic-bead enrichment using protocols known to the skilled artisan and subsequently immortalized either by EBV infection or transduction with BCL-6/BCL-xL with methods known to the skilled artisan and as described herein (Example 10). Non-EBV immortalized B cells are either transduced with BCL-6/BCL-xL alone or co-transduced with CD40L transgene. Retroviral supernatant for B cell transduction is produced using methods known to a person skilled in the art and as described in this invention (Example 10). B cells are retrovirally transduced with different TMG constructs. The example presents different TMG designs encoding varying numbers of 25mer epitopes (1, 3, 12 or 40 epitopes) with or without LAMP1 signaling and transmembrane sequences. 96 hours after transduction, TMG-expressing B cells are enriched based on puromycin resistance using protocols described in the art and this invention (Example 10). In brief, BCL-6/BCL-xL immortalized B cells are cultured in complete B cell medium (RPMI1640 medium supplemented with 10% (v/v) Fetal Calf Serum (FCS), 1% (v/v) Penicillin/Streptomycin (P/S), 1% (v/v) Sodium Pyruvate, 1% (v/v) Non-essential amino acids, 1% (v/v) Glutamax, 50 nM 2-Mercaptoethanol) containing rh-IL-21 (50 ng/mL) and 1 ug/ml puromycin and at a density of 200,000-250,000 cells/ml for 96 hours. […]

B1: CD40L transgene: hCD40L transgene expressed in BCL-6/BCL-xL immortalized B cells (protein)
DNA: MIETYNQTSPRSAATGLPISMKIFMYLLTVFLITQMIGSALFAVYLHRRLDKIEDERNLHEDFVFMKTIQRCNTGERSLSLLNCEEIKSQFEGFVKDIMLNKEETKKENSFEMQKGDQNPQIAAHVISEASSKTTSVLQWAEKGYYTMSNNLVTLENGKQLTVKRQGLYYIYAQVTFCSNREASSQAPFIASLCLKSPGRFERILLRAANTHSSAKPCGQQSIHLGGVFELQPGASVFVNVTDPSQVSHGTGFTSFGLLKL
MHC-class II restricted antigen-presentation (CD69 expression by TCR transduced Jurkat cells): can enhance

From patent US20220228164A1, “ENGINEERED ANTIGEN PRESENTING CELLS” (Neogene Therapeutics B.V., priority 2021, published 2022)
